Results published in US20180172709A1.

Biological target: recombinant Syrian golden hamster proteinase K-sensitive prion protein (residues 23-231) (Syrian golden hamster) (UniProt Q60468)
Assay: cell-based or functional assay

**Q.** Which amount of PrP^Sc seed detected, 4-hour QUIC at 65° C. does the source give for “hamster proteinase K resistant prion protein (263K scrapie strain), purified from hamster brains or (from UniProt P04273 23-231)” here?
**A.** The amount of PrP^Sc seed detected, 4-hour QUIC at 65° C. was 100 fg.

**Q.** What about the amount of PrP^Sc seed detected, 8-hour QUIC at 55° C. of the same substance?
**A.** The amount of PrP^Sc seed detected, 8-hour QUIC at 55° C. was 10 fg.

**Q.** And the amount of PrP^Sc seed detected, triplicate 18-hour QUIC at 55° C.?
**A.** Its amount of PrP^Sc seed detected, triplicate 18-hour QUIC at 55° C. is 1 fg.

**Q.** And the amount of PrP^Sc seed frequently positive, first 48-hour QUIC round?
**A.** Its amount of PrP^Sc seed frequently positive, first 48-hour QUIC round is 25 to 50 ag.

**Q.** What about the amount of PrP^Sc seed positive in one sample, second serial QUIC round of the same substance?
**A.** The amount of PrP^Sc seed positive in one sample, second serial QUIC round was 10 ag.
